Results from patent US20190263905A1 (DINONA, published 2019).

T1: CD66c (CEACAM6) on CD66c-positive A549 non-small-cell lung cancer cells (UniProt P40199 35-320, limits assumed)
T1 construct: whole, on cells; also called CD66c antigen; NCA-90
T1 sequence (looked up): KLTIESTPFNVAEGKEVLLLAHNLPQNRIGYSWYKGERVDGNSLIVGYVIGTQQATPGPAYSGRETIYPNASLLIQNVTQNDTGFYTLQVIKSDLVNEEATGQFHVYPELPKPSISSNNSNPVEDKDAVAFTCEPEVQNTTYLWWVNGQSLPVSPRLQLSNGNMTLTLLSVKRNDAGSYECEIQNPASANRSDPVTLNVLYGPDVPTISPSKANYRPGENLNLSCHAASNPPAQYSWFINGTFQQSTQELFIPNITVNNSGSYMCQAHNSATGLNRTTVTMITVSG

T2: Antigen CD66c (CEACAM6; Sino Biological, Inc.) (UniProt P40199 35-320)
T2 construct: Bought antigen coated on the ELISA plate; construct not described; also called CD66c antigen; CECACAM6
T2 sequence (looked up): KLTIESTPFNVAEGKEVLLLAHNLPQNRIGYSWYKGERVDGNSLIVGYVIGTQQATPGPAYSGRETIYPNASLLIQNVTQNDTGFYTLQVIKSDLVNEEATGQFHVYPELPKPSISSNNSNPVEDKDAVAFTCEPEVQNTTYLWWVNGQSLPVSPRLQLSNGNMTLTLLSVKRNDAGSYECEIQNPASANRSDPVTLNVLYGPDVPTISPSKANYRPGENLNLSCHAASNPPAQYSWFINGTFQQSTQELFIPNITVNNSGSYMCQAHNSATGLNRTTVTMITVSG


Tests used:
[1] = target: T1, CD66c (CEACAM6) on CD66c-positive A549 …; experiment: flow cytometry on A549 cells, relative to chimeric antibody
Protocol: (§1) Each expressed 96 recombinant humanized antibody was poured and reacted in a test tube containing the same amount ([…]) of CD66c-positive A549 non-small-cell lung cancer cell line at 4° C. for 30 minutes, washed with PBS, and treated with FITC-conjugated goat anti-Human IgG (DiNona Inc, Korea) was added and incubated at 4° C. for 15 minutes. After washing with PBS, the cells were analyzed with a flow cytometer (Stratedigm, S1000EXi) and the results are shown below.
(§2) Among the 96 recombinant humanized antibody candidates, eight were firstly selected based on the degree of expression, the presence of aggregation, and the degree of cell binding (Table 9 and Table 10, FIGS. 3A to 3E).

[2] = target: T1, CD66c (CEACAM6) on CD66c-positive A549 …; experiment: flow cytometry on CD66c-positive A549 cells, mean fluorescence
Protocol: as §1, §2

[3] = target: T1, CD66c (CEACAM6) on CD66c-positive A549 …; experiment: flow cytometry on CD66c-positive A549 cells, FITC anti-human IgG
Protocol: as §1, §2

[4] = target: T2, Antigen CD66c (CEACAM6; Sino …); experiment: ELISA, coated CEACAM6 100 ng/well, antibody 0.17 ng/ml
Protocol: (§3) Antigen CD66c (CEACAM6; Sino Biological, Inc.) and CEACAM1 antigen (Sino Biological, Inc.) were coated on a 96-well plate at 100 ng per well and then blocked. The primary antibody was diluted serially three fold from 10 ug/ml at initial concentration and was bound at 37° C. for 1 hour, and goat anti-Human Ig-HRP conjugate (Jackson ImmunoResearch) as a secondary antibody was diluted 1:10,000 and incubated at 37° C. for 30 minutes. The washing was carried out at three times between each step, and the TMB reaction was performed, stopped with 1N H₂SO₄ solution at the same amount of TMB solution (100 ul) and then OD value was measured at 450 nm.
(§4) As a result of the experiment, the binding affinities to CD66c antigen of the five kinds of recombinant humanized antibodies selected from among 96 kinds of recombinant humanized antibodies are shown in FIG. 4a, Table 12, FIG. 4b and Table 13. FIG. 4a and Table 12 show the binding capacity of the antibodies to CECACAM6 CD66c) antigen, and FIG. 4b and Table 13 are the results for the CEACAM1 (CD66a) antigen.

[5] = target: T2, Antigen CD66c (CEACAM6; Sino …); experiment: ELISA, coated CEACAM6 100 ng/well, antibody 0.51 ng/ml
Protocol: as §3, §4

[6] = target: T2, Antigen CD66c (CEACAM6; Sino …); experiment: ELISA, coated CEACAM6 100 ng/well, antibody 1.52 ng/ml
Protocol: as §3, §4

[7] = target: T2, Antigen CD66c (CEACAM6; Sino …); experiment: ELISA, coated CEACAM6 100 ng/well, antibody 4.57 ng/ml
Protocol: as §3, §4

[8] = target: T2, Antigen CD66c (CEACAM6; Sino …); experiment: ELISA, coated CEACAM6 100 ng/well, antibody 13.72 ng/ml
Protocol: as §3, §4

[9] = target: T2, Antigen CD66c (CEACAM6; Sino …); experiment: ELISA, coated CEACAM6 100 ng/well, antibody 41.15 ng/ml
Protocol: as §3, §4

[10] = target: T2, Antigen CD66c (CEACAM6; Sino …); experiment: ELISA, coated CEACAM6 100 ng/well, antibody 123.46 ng/ml
Protocol: as §3, §4

[11] = target: T2, Antigen CD66c (CEACAM6; Sino …); experiment: ELISA, coated CEACAM6 100 ng/well, antibody 370.37 ng/ml
Protocol: as §3, §4

[12] = target: T2, Antigen CD66c (CEACAM6; Sino …); experiment: ELISA, coated CEACAM6 100 ng/well, antibody 1111.11 ng/ml
Protocol: as §3, §4

[13] = target: T2, Antigen CD66c (CEACAM6; Sino …); experiment: ELISA, coated CEACAM6 100 ng/well, antibody 3333.33 ng/ml
Protocol: as §3, §4

[14] = target: T2, Antigen CD66c (CEACAM6; Sino …); experiment: ELISA, coated CEACAM6 100 ng/well, antibody 10000.00 ng/ml
Protocol: as §3, §4

Binder | % (% gated × mean) [1] | Mean [2] | % gated [3] | OD 450 nm [4] | OD 450 nm [5] | OD 450 nm [6] | OD 450 nm [7] | OD 450 nm [8] | OD 450 nm [9] | OD 450 nm [10] | OD 450 nm [11] | OD 450 nm [12] | OD 450 nm [13] | OD 450 nm [14]
recombinant humanized anti-CD66c antibody Protein ID 3004 (Vk7 + VH5) (antibody, human IgG1, V domains shown, also called #41) VH: QVQLVQSGAEVKKPGASVKISCKASGYSFTDYTMNWVRQAHGQNLEWIGLINPFHGGTVSNQRFKVKATLTVDVSTNTAYMELSRLRSDDTAVYYCVRGDPVRHYYALAYWGQGTLVTVSS VL: DIQMTQSPSTLSASVGDRVTITCGASENVYGTLNWYQRKPGKAPKLLIYGATNLADGVPSRFSGSGSGTEYTLTISSLQPDDFATYYCQNVLSAPYTFGGGTKLEIK | 85% | 541 | 71% | – | – | – | – | – | – | – | – | – | – | –
recombinant humanized anti-CD66c antibody Protein ID 3046 (Vk8 + VH7) (antibody, human IgG1, V domains shown, also called #74) VH: QVQLVQSGAEVKKPGASMKISCKASGYSFTDYTMNWVRQAPGQGLEWIGLINPFHGGTVSNQRFKVKATLTVDVSTNTAYMELSRLRSDDTAVYYCVRGDPVRHYYALAYWGQGTLVTVSS VL: DIQMTQSPSTLSASVGDRVTITCRASENVYGTLNWYQRKPGKAPKLLIYGATNLADGMPSRFSGSGSGTEYTLTISSLQPDDFATYYCQNVLSAPYTFGGGTKLEIK | 82.2% | 523 | 71% | – | – | – | – | – | – | – | – | – | – | –
recombinant humanized anti-CD66c antibody Protein ID 3019 (Vk7 + VH10) (antibody, human IgG1, V domains shown, also called hu 3019; #51) VH: QVQLVQSGAEVKKPGASVKVSCKASGYSFTDYTMNWVKQAPGQNLEWIGLINPFHGGTVSNQRFKVKATMTVDVSTNTAYMELSRLRSDDTAVYYCVRGDPVRHYYALAYWGQGTLVTVSS VL: DIQMTQSPSTLSASVGDRVTITCGASENVYGTLNWYQRKPGKAPKLLIYGATNLADGVPSRFSGSGSGTEYTLTISSLQPDDFATYYCQNVLSAPYTFGGGTKLEIK | 86.9% | 561 | 70% | 0.68 OD | 0.8 OD | 0.95 OD | 1.32 OD | 1.77 OD | 2.45 OD | 3.04 OD | 3.23 OD | 3.34 OD | 3.26 OD | 3.13 OD
recombinant humanized anti-CD66c antibody Protein ID 3010 (Vk7 + VH7) (antibody, human IgG1, V domains shown, also called #45) VH: QVQLVQSGAEVKKPGASMKISCKASGYSFTDYTMNWVRQAPGQGLEWIGLINPFHGGTVSNQRFKVKATLTVDVSTNTAYMELSRLRSDDTAVYYCVRGDPVRHYYALAYWGQGTLVTVSS VL: DIQMTQSPSTLSASVGDRVTITCGASENVYGTLNWYQRKPGKAPKLLIYGATNLADGVPSRFSGSGSGTEYTLTISSLQPDDFATYYCQNVLSAPYTFGGGTKLEIK | 85.8% | 554 | 70% | – | – | – | – | – | – | – | – | – | – | –
